Measurements: patent publication US20250228964A1 (CODIAK BIOSCIENCES, published 2025)

Target: the molecule itself
Assay: SEC-MALS (eluted at 198 kDa against the predicted 98 kDa) and analytical SEC with 0, 1M or 2M GuHCl
Protocol: To confirm proper expression of the PTGFRN ECD, the purified protein was analyzed by size exclusion chromatography/multiangle light scattering (SEC-MALS), using BSA and an anti-VLA4 antibody as standards for comparison. Recombinant PTGFRN ECD was eluted at ˜2x its predicted molecular weight (198 kDa as opposed to the predicted molecular weight, 98 kDa; FIG. 20A). To determine whether PTGFRN ECD forms a homodimer in solution, recombinant PTGFRN ECD was run over an analytical SEC column (Tosoh, 7.8×30cm, G3000SW xl) in PBS in the absence of guanidium chloride (GuHCl) or in the presence of 1M or 2M guanidinium chloride (GuHCl).

B1: recombinant PTGFRN extracellular domain (ECD), purified, Fc tag removed with thrombin (receptor)
chain: VPTATLVRVVGTELVIPCNVSDYDGPSEQNFDWSFSSLGSSFVELASTWEVGFPAQLYQERLQRGEILLRRTANDAVELHIKNVQPSDQGHYKCSTPSTDATVQGNYEDTVQVKVLADSLHVGPSARPPPSLSLREGEPFELRCTAASASPLHTHLALLWEVHRGPARRSVLALTHEGRFHPGLGYEQRYHSGDVRLDTVGSDAYRLSVSRALSADQGSYRCIVSEWIAEQGNWQEIQEKAVEVATVVIQPSVLRAAVPKNVSVAEGKELDLTCNITTDRADDVRPEVTWSFSRMPDSTLPGSRVLARLDRDSLVHSSPHVALSHVDARSYHLLVRDVSKENSGYYYCHVSLWAPGHNRSWHKVAEAVSSPAGVGVTWLEPDYQVYLNASKVPGFADDPTELACRVVDTKSGEANVRFTVSWYYRMNRRSDNVVTSELLAVMDGDWTLKYGERSKQRAQDGDFIFSKEHTDTFNFRIQRTTEEDRGNYYCVVSAWTKQRNNSWVKSKDVFSKPVNIFWALEDSVLVVKARQPKPFFAAGNTFEMTCKVSSKNIKSPRYSVLIMAEKPVGDLSSPNETKYIISLDQDSVVKLENWTDASRVDGVVLEKVQEDEFRYRMYQTQVSDAGLYRCMVTAWSPVRGSLWREAATSLSNPIEIDFQTSGPIFNASVHSDTPSVIRGDLIKLFCIITVEGAALDPDDMAFDVSWFAVHSFGLDKAPVLLSSLDRKGIVTTSRRDWKSDLSLERVSVLEFLLQVHGSEDQDFGNYYCSVTPWVKSPTGSWQKEAEIHSKPVFITVKMDVLNAFKYP
notes: Expressed in Expi293 as signal peptide-ECD-PAR1 cleavage site-Fc; the Fc was removed with thrombin, so a remnant of the PAR1 site may remain; also called PTGFRN ECD; purified PTGFRN ECD
- binding result: binds
